Results from the nanobody polyreactivity screen of Harvey et al. (2022).

Assay: yeast display, Sf9 membrane polyspecificity reagent, FACS + sequencing; frameworks hold sequencing errors
Method in brief: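 A synthetic nanobody library was expressed on Saccharomyces cerevisiae BJ5465 by galactose induction for 36–48 hours. The library was stained for 1 hour at 4 °C with 10% biotinylated, detergent-solubilized Sf9 membrane reagent and enriched with streptavidin microbeads before FACS. Low and high (top ~1%) gates were set on anti-HA fluorescence for expression and streptavidin fluorescence for reagent binding, and each polyreactivity label reflects the gate of origin.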

Sequence	polyreactivity (PSR sort gate)
QVQLVESAGGLVQAGGSLRIRCAASVSTFGVYALGWYRQAPGKERELVAAISSSTGSTYYADSVKGRFTISRDNAKNTVYLQMNSLKPEDTGVYYCAAAGYGKVRGDYWGLGTQVTVSS	low polyreactivity
QEQLVESGRGLVQAGGSLRVSCAASGSIFSVNGMGWYRQAPGKARELVAAIRRSGGSTYYADSVKGRFTISRDHAKNTVNLQRNSLKPEDTAVYYCAAPVRQSSYTRYDAWGQGTQVTVSS	high polyreactivity
QVQLVESGGGLVQAGGSLRLICAASGSIFADYVMGWYRQAPGKERELVAAITIDGGSTYYADSVKGRFTISRDNAKNTVYLQMNSLKPEDTAVYYCAADSSGRSDSWGQGTQVTVSS	low polyreactivity
QLQLVESGGGLVQAGGSLRLSCAASGRIFVANTMGWYRQAPGKERELVAAISRGSTYYADSVKGRFTISRDNAKNTVYLQMKSLKPEDTAVYYCAVKLAYGYYYWGLGTQVTVSS	high polyreactivity
QVQLVESGGGLVQAGGRLRLSCAASGSIFHLYMGWYRQAPGKERELVAVINSSGDSTYYADSVKGRFTISRDNAKNTVYLQMNSLKPEDTAVYYCNARRRGPRYLYGYWGQGSQVTVSS	high polyreactivity
QVQLVESGGGLVQAGGSLRLTCAASGRTFRRNAMGWYRPAPAKERELVAAITSGGGTYYADSVKGRFTISRDNAKNTVYLQMNSLKPEDTAVYYCNKKTSAGRVDYWGQGTQVTVSS	high polyreactivity
QVQLVESGGGLVQAGGSLRLSCPASGSTIPLYAMGWYRPAPGKERELVAAISRRGGRTYYADSVKGRFTISRDNAKNSVYLQMNSLKPEDTAVYYCATAQGSRVDYWGQGTQVTVSS	high polyreactivity
QVQLVESGGGLVQAGGSLRLSCAASGSTFRYYAMGWYRQAPGKERELVAAITYSGGRTYYADSVKGRFTISRDNAKNTVYLQMNSLKPEDTAVYYCAASFRAWSGNYWGQGTQVTVSA	high polyreactivity
QVQLVESGGGLVQAGGSLRLSCAASGLIFARYAMGWYRQAPGKERELVAAISSSGVSTDYADSVKGRFTISRDNAKNTVYLQMNSLKPEDTAVYYCAKRTGSRVRGGKYGYWGQGTQVTVSS	high polyreactivity
QVQLVESGGGLVQAGGSLRLSCAASGSTLSWYAMGWYRQAPGKERELVAAITRGGSTYYADSVKGRFTISRDNAKNTVYLQMNSLKPEDTAVYYCNAGRDGSRFQYRYDYWGQGTQVTVSS	low polyreactivity
QVQLVESGGGLVQAGGSLRLSCAASGRTFDAYAMGWYRQAPGKERELVATITSGGGTYYADSVKGRFTISRDNAKNTVYLQMNSLKPEDTAVYYCKKRYVVSRKYDYWGQGTQVTVSS	low polyreactivity
QVQHVESGGGLVQAGGSLSLSCADSGITFYRYAMGCDRQAPAKERELVDRISQIGGSTYYADSVKGRFTISRDNAKNTVYLQMNSLKPEDTAVYYCNARVRYSTVTYLRKYYYWGQGTQVTVSS	high polyreactivity
QVQLGESGGGLVQAGGSLRLSCAASGLTFYLYAMGWYRQAPGKERELVAAITTSGGSTYYADSVKGRFTISRDTAKNTVYLQMNSLKPEDTAVYYCATQGALRGYGYWGQGTQVTVSS	high polyreactivity
QVQLVDSGGGLVQAGGSLRLSCAASGSIVYYNDMGWYRQAPGKEREVVATITSGGTTYYADSVKGRFTISRDNAKNSVYVQMNSLKGEDTAVYYCAATSYPGFDDWGQGSQVTVSS	low polyreactivity
QVQLVESGGGLVQAGGSLRLSCAASGRTFVVNAMGWYRQAPGKEREFVAAISYRGDSTYYADSVKGRFTISRDNAKNTVYLQMNSLKPEDSAVYYCAARVLGPGRRYYYWGQGTQVTLSS	high polyreactivity
QVQLVESGGGLVQAGGSLRLSCAASGIIFQRNAMGWYRQAPGKERELVAAISASGGSTNYADSVKGRFTISRDNAKNTVSLQMNSLKPEDTAVYYCAAEDDGDFDYWGQGTQVTVSS	low polyreactivity
QVQRVDSGGGLVQAGGSLRLSCAASGFTFAVYAMGWYRQSPGKERELVAAISRSGTRTYYADSVKGRFTISRDNAKNTVYLQMNSLKPEDTAVYYCAADKYRLGYDYWGQGTQLTVSS	low polyreactivity
QVQHVESGGGLVQARGSLRLSCAASGSIFWYNAMGWYRQAPGTVRELVAAINWSGGSTFYADSVKGRFTISRDNAKNTVYLQMNSLKPEDTAVDYCAADDWYTGYDYWGQGTQVTVSS	high polyreactivity
QVQLVESGGGLVQAGGSLRLSCAASGRTFKYYTMGWYRQAPGKEREFVAAITSSGGRTYYADSVKGRFTISRDNAKNTVYLQMNSLKPEDTAVYYCAASTYRVWLAPATLSRYDYWGQGTQVTVSS	high polyreactivity
QVQLVESGGGLVQAGGSLRLSCAASGFIFWVYAMGWYIQAPGKERELVAAITSGGGSTYYADSVKGRFTISRDNAKNTVYIQMNSLKPDDTAVYYCATRIRTVAYNYWGQGTQVTVSS	high polyreactivity
QVQLVESGGGLVQAGGSLRLSCAASGSTFYPYVMGWYRQAPGKEREFVAAISKSGGSTYYADSVKGRFTISRDNAKNTVYLQMNSLKPEDTAVYYCNKKVASYYRSYYYWGQGTQVTVSS	high polyreactivity

Sequence	polyreactivity (PSR sort gate)
QVQHVESGGGLVQAGGSLRLSCAASGSTFYYYAMGWYRQAPGKERELVAAIRSDVSTNYADSVKGRFTISRDNAKNTVYLQMNSLKPEDTAVYYCAARFPWNRVTYDYWGQGTQVTVSS	low polyreactivity
QVQLVESAGGLVQAGGSLRLSCAASGSTFLSYFMGWYRQAPGKERELVAAITGTGGRTYYADSVKGRFTISRDNAKNTVYLQMNSLKPEDSAVYYCTAYRKHGYDYWGQGTQVTVSS	high polyreactivity
QVQLVESGGGLVQAGGSLRLSCAASGLIFNWNDMGWYRQAPGKERELVAAISGDGGITYYADSVKGRFTISRDNAKNTVYLQMNSLKPEDTAVYYCNAGFTWGDWYDYWGQGTQVTVSS	low polyreactivity
QVQLVESGGGLVQAGGSLRLSCAATGITFEGYAMGWYRQAPGKERELVAAIRSSGTSTYYADSVKGRFTISRDNAKNTVYLQMNSLKPEDTAVYYCNRARSSSRYDYCGQGTQVTVSS	low polyreactivity
QVQLVESGGGLVQAGGSLRLSCAASGFIFRAYAMGWYRQAPGKERELVAAISRSGSRTYYADSVKGRFTISRDHAKNTVYLQMNSLKPEDTAVYYCAADHGSLLYDYWGQGTQVTVSS	high polyreactivity
QVQLVESGGGLVQAGGSLRLSCAASGRIFGYYAMGWYRQAPGKERELVADITESGTSTYYADSVKGRFTISRDNAKNTVYLQMNSLKPEDTAVYYCAAGYWWRYALYGYWGQGTQVTVSS	low polyreactivity
QVQLLESGGGLVQAGGSLRLSCAASGFTFEDNAMGWYRKAPGKERELVAADGTNYADSVKGRFTISRDNAKNTVYLQMNSLKPEDTAVYYCARYARQVTPLSIGLYDYWGQGTQVTVSS	low polyreactivity
QVQLVESGGGLVQAGGSLLLSCAASGSIFYNYAMGWYRQAPGKERELVAAISQSGGSTRYADSVKGRFTISRDNAKNTVYLQMNSLKPEDTAVYYCAASRRKGQGSAGFGYWGQGTQVTVSS	high polyreactivity
QVQLLESGGGLVQSGGILRLSCAASGRNFGRYAMGLYRQAPGKERELLATITWRGGITYYADSVKGRFTISRDNAMNTVSLQMNSLKPEDSAVYYCAAGYGRIPYVYWGKGTQVTVSS	high polyreactivity
QVQLVESGGGLVQAGGSLRLSCAASGITFVRYAMGWYRQAPGKERELVAVISRGGITNYADSVKGRFTISRDNAKNTVYLQMNSLKPEDTAVYYCAVRGRSYVRTYDYWGQGTQVTVSS	high polyreactivity
QVQIEESGGGLVQAGGSLRLSCAASGSTFGSYAMGWYRQAPGKEREFVAAISKRGGSTYYADSVKGRFTISRDNAKNTVYLQMNSLKPEDTAVYYCNRRQEYYSLHKTFNYWGQGTQVTVSS	high polyreactivity
QVHLVESGGGLVQAGGSLRLSCAASGRIFVKYAMGCYRQAPGKERELVAAIRSGGSTYYADSVKGRFTISRDNAKNTVYLQMNSLKPEDTAVYYCAADRNKHHYYTEPYDYWGQGTQVTVSS	low polyreactivity
QVQLVESGGGLVQAGGSLRLSCAASGRTFQPYAMGWYRQAPGKERELVASISRSGGRTYYADSVKGRFTISRDNAKNTVYLQMNSLKPEDTAVYYCAADIPYTRSIKYYYWGQGTQVTVSS	high polyreactivity
QVQLVESGGGLVQAGGSLRLSCAASGSIFNGYAMGWYRQAPGKERELVAAISKRGGSTYYADSVKGRFTISRDNAKNTVYLQMNSLKPEDTAVYYCAARRLFPYGYWGQGTQVTVSS	high polyreactivity
QVQLVESGGGLVQAGGSLRLSCAASGYTFSQNAMGWYRQAPGKERELVAAITWSGAGTYYADSVKGRFTISRDNAKNTVYLQMNSLKPEDTAVYYCAAREWTSQDRQHNYWGQGTQVTVSS	low polyreactivity
QVQLVESGGGLVQAGGSLSLSCAASGRIFSTYAMGWYRQAPGKERELVAAITSRGTSTYYADSVKGRFTISRDNAKNTVYLQINSLKPEDSAVYYCAARRERWSSSIVGYWGQGTQVTVSS	high polyreactivity
QVQLVESGGGLVQAGGSLRLSCAASGSIFYWNAMGWYRQAPGKERELVATITITTSTNYADSVKGRFTISRDNAKNTVYLQMNSLKPEDTAVYYCNAGAPYRYLDEYNYWGQGTQVTVSS	low polyreactivity
QVQLVESGGGLVQAGGSLRLSCAASGSIFHWYTMGWYRQAPGKERELVATISAGGSTYYADSVKGRFKISRDNAKNTVYLQMNSLKPEDTAVYYCNRRVHGVYRWRRSDSWGQGTQVTVAS	high polyreactivity
QFQLVESGVGLVQAGGSLRLSCAASVRIFITNAMGWYRQAPGKERELVAAISGGSTYYGDSVKGRFTISRDNAKNTVYLQMNSLKPEDTAVYYCAVDNYYTPWYPYLGYDSWGQGTQVTVSS	low polyreactivity
QVQLVESGGGLVQAGGSLRLSCAASGPIYTYAMGWYRHAPGKERELVAAISRRGGSTYYADSVKGRFTISRDNAKNTVYLQMNSLKPEDTAVYYCAKERSFGDGNFDYEYWGQGTQVTVSS	high polyreactivity
